According to publication PMC7851489:

B1: mouse CD226 protein (receptor)
chain: EETLWDTTVRLSETMTLECVYPLTHNLTQVEWTKNTGTKTVSIAVYNPNHNMHIESNYLHRVHFLNSTVGFRNMSLSFYNASEADIGIYSCLFHAFPNGPWEKKIKVVWSDSFEIAAPSDSYLSAEPGQDVTLTCQLPRTWPVQQVIWEKVQPHQVDILASCNLSQETRYTSKYLRQTRSNCSQGSMKSILIIPNAMAADSGLYRCRSEAITGKNKSFVIRLIITDGGTNKHFILP

Target: soluble extracellular domain of poliovirus receptor (sPVR)
Experiment: BLI

Molecule	Kd [µM]
mouse TIGIT protein (from UniProt P86176 29-148) (receptor)	0.033
B1	6.13
